Results from patent US20240141061A1, “NOVEL ANTIBODY AGAINST CD55 AND USE THEREOF” (SG MEDICAL INC, priority 2021, published 2024).
Entries after “also recorded” stand apart in the source; their conditions may differ.

Tests used:
[1] = test system: Burkitt lymphoma BJAB cells; test: CDC / apoptosis by FACS (annexin V/7-AAD) in BJAB cells with complement human serum; assay type: cell-based; conditions: 50% complement human serum, 1 hour
Description: BJAB cells have complement resistance and this is due to the expression of CD55 (Golay, et al., Blood, 95 (12):3900-8, 2000). For this reason, they show low response to rituximab the main therapeutic mechanism of which is CDC (complement-dependent cytotoxicity). In order to confirm the possibility of improving the therapeutic effect of rituximab for Burkitt lymphoma, which is known as malignant B cell lymphoma, the apoptotic ability of co-administration with EP-10H in Burkitt lymphoma BJAB cells was investigated. For investigation of the effect of co-administration, 5×10^5 BJAB cells were cultured for 1 hour under the condition of 37° C. and 5% CO2 after treating with 100 μL of RPMI supplemented with 50% complement human serum (Sigma, USA), containing 50 μg/mL of 4-1H or EP-10H and 20 μg/mL of rituximab. Then, CDC was observed by identifying apoptotic cells with Attune N×T (ThermoFisher Scientific, USA), which is a FACS analysis equipment, using an FITC annexin V apoptosis detection kit with 7-AAD (BioLegend, USA) (FIG. 4). […] It was confirmed that this effect was more significant for EP-10H having higher affinity for CD55.
The apoptotic ability of the CD20×CD55 bispecific antibody was investigated by the method of Example 10-1. […]

Ramos-RR cells = test: CDC / apoptosis by FACS in rituximab-resistant Ramos-RR cells with complement human serum; assay type: cell-based; conditions: method of Example 10-1
Ramos cells = test: CDC / apoptosis by FACS in Ramos cells with complement human serum; assay type: cell-based; conditions: rituximab alone, method of Example 10-1
PC9 NSCLC cells = test: Apoptosis by FACS in PC9 NSCLC cells; assay type: cell-based; conditions: 5 μg/mL gefitinib alone, 24 hours
Method: (§1) 24 hours later, after treating with 5 μg/mL gefitinib or 5 μg/mL gefitinib and 5 μg/mL 4-1H or EP-10H diluted with 500 μL of RPMI, the cells were cultured again for 24 hours under the condition of 37° C. and 5% CO2. Then, apoptotic cells were analyzed with the FACS analysis equipment Attune N×T using 7-AAD and an FITC annexin V apoptosis detection kit (FIG. 7b).

PC9-GR cells = test: Apoptosis by FACS in gefitinib-resistant PC9-GR cells; assay type: cell-based; conditions: 24 hours
Method: as §1

K562-IR cells = test: Apoptosis by FACS in imatinib-resistant K562-IR cells; assay type: cell-based; conditions: 24 hours
Method: (§2) Immediately thereafter, the cells were treated with 2 μM imatinib or with 2 μM imatinib and 10 μg/mL 4-1H or EP-10H diluted with 500 μL of RPMI, and then cultured under the condition of 37° C. and 5% CO2 for 24 hours. Then, apoptotic cells were analyzed with the FACS analysis equipment Attune N×T using 7-AAD and an FITC annexin V apoptosis detection kit (FIG. 6b).

K562 cells = test: Apoptosis by FACS in K562 cells; assay type: cell-based; conditions: 2 μM imatinib alone, 24 hours
Method: as §2

[2] = biological target: T1, recombinant human CD55 (R&D Systems 2009-CD/CF) (human, UniProt P08174 35-353); test: indirect ELISA, recombinant human CD55 coated
T1 construct: Bought recombinant protein coated on ELISA plates; also called decay-accelerating factor; DAF
T1 sequence (looked up): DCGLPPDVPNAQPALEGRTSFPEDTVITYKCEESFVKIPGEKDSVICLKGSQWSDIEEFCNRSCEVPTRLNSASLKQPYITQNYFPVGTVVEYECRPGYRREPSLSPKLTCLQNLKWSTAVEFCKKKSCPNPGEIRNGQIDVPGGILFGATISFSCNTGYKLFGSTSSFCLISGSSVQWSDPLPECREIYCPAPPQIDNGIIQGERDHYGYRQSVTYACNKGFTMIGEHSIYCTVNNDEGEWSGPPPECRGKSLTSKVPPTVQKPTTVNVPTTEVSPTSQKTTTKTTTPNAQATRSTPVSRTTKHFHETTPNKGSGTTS

[3] = biological target: T2, CD55 on cells (BJAB, Ramos, Ramos-RR, K562, K562-IR, PC9, PC9-GR) (UniProt P08174 35-353, limits assumed); test: flow cytometry, Ramos and Ramos-RR cells stained with 10 µg/mL EP-10H and anti-human IgG Alexa Fluor 488
T2 construct: whole, on cells; Endogenous CD55 on cell lines used for flow cytometry and cell death assays; also called CD55 receptor
T2 sequence (looked up): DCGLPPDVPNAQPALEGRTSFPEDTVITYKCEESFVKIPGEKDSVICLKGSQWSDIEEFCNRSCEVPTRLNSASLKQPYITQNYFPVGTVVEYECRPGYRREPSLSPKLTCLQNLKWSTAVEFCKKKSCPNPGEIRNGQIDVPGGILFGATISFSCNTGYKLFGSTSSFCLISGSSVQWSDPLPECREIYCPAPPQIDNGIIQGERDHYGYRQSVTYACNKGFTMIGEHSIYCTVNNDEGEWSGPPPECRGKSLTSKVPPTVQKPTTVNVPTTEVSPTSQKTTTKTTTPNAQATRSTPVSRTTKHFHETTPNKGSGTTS
Method: 5×10⁵ Ramos or Ramos-RR cells were suspended in PBS containing or not containing 10 μg/mL of the EP-10H monoclonal antibody and cultured at 4° C. for 1 hour. The culture was centrifuged at 4,000 rpm for 5 minutes and centrifuged again at 4,000 rpm for 5 minutes after washing with 100 μL of PBS. After treating the cells with goat anti-human IgG antibody diluted to 1:100 using PBS and Alexa Fluor 488 (ThermoFisher Scientific, USA), they were incubated at 4° C. for 30 minutes in the shade. The fluorescence-stained cells were washed with PBS, suspended in 400 μL of PBS and then analyzed using Attune N×T (ThermoFisher Scientific, USA), which is a FACS analysis equipment.

[4] = biological target: T1, recombinant human CD55 (R&D Systems …); test: indirect ELISA, recombinant human CD55 coated, anti-human Fc-HRP
Method: (§3) The binding ability of the G4-1H monoclonal antibody prepared in Example 2 for CD55 was investigated by indirect ELISA. For the indirect ELISA, recombinant human CD55 (R&D Systems, USA) diluted to 1 μg/mL in 50 μL of PBS was added to a 96-well immunoplate (Corning, USA) and then adsorbed by keeping at 4° C. overnight. After incubation for 1 hour at room temperature in a buffer containing 3% bovine serum albumin (Millipore, USA), followed by washing with a buffer containing 0.5% Tween 20 (Amresco, USA) three times, 50 μL of the serially diluted antibody (0.0001, 0.0003, 0.001, 0.003, 0.01, 0.03, 0.1, 0.3, 1, 3 and 10 nM) was treated per well. After incubation at room temperature for 2 hours for antibody-antigen binding, the antibody-antigen complex was washed three times with a buffer containing 0.5% Tween 20 (Amresco, USA). After treating with 50 μL of anti-human immunoglobulin Fc-HRP antibody (Jackson Immunoresearch, USA) diluted to 1:3,000 per well, followed by incubation at room temperature for 1 hour and washing three times with a buffer containing 0.5% Tween 20 (Amresco, USA), color development was conducted for 10 minutes by adding 50 μL of 3,3′,5,5′-tetramethylbenzidine (TMB) (ThermoFisher Scientific, USA).

recombinant human CD55 = biological target: T3, recombinant human CD55 (Homo sapiens, UniProt P08174); test: Indirect ELISA, affinity for CD55; assay type: binding; conditions: full-length antibody 0.0001-10 nM on CD55 coated at 1 μg/mL
T3 construct: purchased R&D Systems 2009-CD/CF
T3 sequence (P08174 35-353): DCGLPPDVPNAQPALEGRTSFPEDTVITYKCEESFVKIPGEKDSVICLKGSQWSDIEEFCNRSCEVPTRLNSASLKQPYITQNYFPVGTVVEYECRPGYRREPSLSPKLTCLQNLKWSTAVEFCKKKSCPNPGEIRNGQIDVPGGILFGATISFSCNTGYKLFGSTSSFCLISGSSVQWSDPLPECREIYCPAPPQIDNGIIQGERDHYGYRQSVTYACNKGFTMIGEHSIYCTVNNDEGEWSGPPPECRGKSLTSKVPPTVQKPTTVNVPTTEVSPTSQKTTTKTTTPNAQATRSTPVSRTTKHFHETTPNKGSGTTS
Method: as §3
The affinity of the antibodies screened in Example 6 for CD55 was investigated by indirect ELISA. The indirect ELISA was conducted in the same manner as in Example 3.
The affinity of the antibodies prepared in Example 8 for CD55 was investigated by indirect ELISA. The indirect ELISA was conducted in the same manner as in Example 3. […]

## rituximab [reference compound]
[1]; 20 μg/mL rituximab alone
  response to rituximab (CDC, apoptotic cells): low response
Ramos-RR cells; rituximab alone
  induction of apoptosis: the induction of apoptosis in the Ramos-RR cells was lower than in the Ramos cells
Ramos cells
  induction of apoptosis: induced apoptosis

## COc1cc2ncnc(Nc3ccc(F)c(Cl)c3)c2cc1OCCCN1CCOCC1 [Gefitinib, gefitinib, reference compound]
PC9 NSCLC cells
  induction of apoptosis: induced apoptosis
PC9-GR cells; 5 μg/mL gefitinib alone
  induction of apoptosis: did not show the effect

## Cc1ccc(NC(=O)c2ccc(CN3CCN(C)CC3)cc2)cc1Nc1nccc(-c2cccnc2)n1 [Imatinib, imatinib, reference compound]
K562-IR cells; 2 μM imatinib alone
  induction of apoptosis: did not show the effect
K562 cells
  induction of apoptosis: induced apoptosis

B1: EP-10H (antibody, V domains shown)
VH: EVQLVESGGGLVQPGGSLRLSCAASGFTFSDRGMAWVRQAPGKGLEWVSGISSSGRYTYYAPAVKGRATISRDNSKNTLYLQMNSLRAEDTAVYYCAKNAVAGGWHAAYIDAWGQGTTVTVSS
VL: SYELTQPPSVSVSPGQTASITCSGGGGSYGWYQQKPGQSPVTVIYWNDKRPSGIPERFSGSKSGNTATLTISGTQAMDEADYYCGGWDSSTYAIFGGGTKLTVL
notes: Tested as full-length IgG; Differs from G4-1H only at the H100A site (G to V); also called EP-10H monoclonal antibody; EP-10H antibody
[2]
  binding result: binds
[3]
  binding result: binds

B2: G4-1H (antibody, V domains shown)
VH: EVQLVESGGGLVQPGGSLRLSCAASGFTFSDRGMAWVRQAPGKGLEWVSGISSSGRYTYYAPAVKGRATISRDNSKNTLYLQMNSLRAEDTAVYYCAKNAGAGGWHAAYIDAWGQGTTVTVSS
VL: SYELTQPPSVSVSPGQTASITCSGGGGSYGWYQQKPGQSPVTVIYWNDKRPSGIPERFSGSKSGNTATLTISGTQAMDEADYYCGGWDSSTYAIFGGGTKLTVL
notes: Tested as complete antibody (full-length IgG); also called humanized 4-1H antibody; G4-1H monoclonal antibody
[4]
  binding result: binds

B3: EP-10H: anti-CD55 antibody different from G4-1H only at the H100A site (G to V), VL SEQ ID NO 4, VH SEQ ID NO 19 (antibody, V domains shown)
VH: EVQLVESGGGLVQPGGSLRLSCAASGFTFSDRGMAWVRQAPGKGLEWVSGISSSGRYTYYAPAVKGRATISRDNSKNTLYLQMNSLRAEDTAVYYCAKNAVAGGWHAAYIDAWGQGTTVTVSS
VL: SYELTQPPSVSVSPGQTASITCSGGGGSYGWYQQKPGQSPVTVIYWNDKRPSGIPERFSGSKSGNTATLTISGTQAMDEADYYCGGWDSSTYAIFGGGTKLTVL
modifications: EP-1E_VH; G4-1H_VL
Recombinant human CD55
  affinity for CD55 (indirect ELISA, absorbance at 450 nm): comparable affinity
[1]; 50 μg/mL anti-CD55 antibody + 20 μg/mL rituximab
  effect of rituximab (CDC, apoptotic cells) on co-administration with anti-CD55 antibody: the effect was increased; also recorded: The increase was higher for a combination of rituximab and EP-10H than a combination of rituximab and 4-1H
K562-IR cells; 2 μM imatinib + 10 μg/mL anti-CD55 antibody
  apoptosis on co-administration with imatinib: apoptosis was induced; also recorded: higher apoptotic effect than the co-administration of 4-1H and imatinib
PC9-GR cells; 5 μg/mL gefitinib + 5 μg/mL anti-CD55 antibody
  apoptosis on co-administration with gefitinib: apoptosis was induced; also recorded: higher apoptotic effect than the co-administration of 4-1H and gefitinib
Ramos-RR cells; anti-CD55 antibody + rituximab
  apoptosis by rituximab on co-administration with anti-CD55 antibody: increased apoptosis; also recorded: more significantly increased the apoptosis by rituximab as compared to the co-administration with 4-1H
